Measured values published in patent US20200199241A1 (Chugai, published 2020).

T1: human FcγRIIa(H) (human, UniProt P12318 36-217)
T1 construct: also called FcgRIIaH; FcγRIIa type H
T1 sequence: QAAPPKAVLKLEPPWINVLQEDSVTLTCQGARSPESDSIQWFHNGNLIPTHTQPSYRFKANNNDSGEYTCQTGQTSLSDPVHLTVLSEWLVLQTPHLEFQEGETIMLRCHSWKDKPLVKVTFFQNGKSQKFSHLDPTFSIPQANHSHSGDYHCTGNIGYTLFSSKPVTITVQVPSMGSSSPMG

T2: human FcγRIIa(R) (human, UniProt P12318 36-217)
T2 construct: also called FcgRIIaR; FcγRIIa type R
T2 chain: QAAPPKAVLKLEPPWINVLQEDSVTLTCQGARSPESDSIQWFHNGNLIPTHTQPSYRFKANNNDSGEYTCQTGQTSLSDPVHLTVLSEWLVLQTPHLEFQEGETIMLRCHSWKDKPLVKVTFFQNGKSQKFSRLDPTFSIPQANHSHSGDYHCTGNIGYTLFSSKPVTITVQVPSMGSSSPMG

T3: human FcγRIIb (human, UniProt P31994 43-217, limits assumed)
T3 construct: also called FcgRIIb
T3 sequence: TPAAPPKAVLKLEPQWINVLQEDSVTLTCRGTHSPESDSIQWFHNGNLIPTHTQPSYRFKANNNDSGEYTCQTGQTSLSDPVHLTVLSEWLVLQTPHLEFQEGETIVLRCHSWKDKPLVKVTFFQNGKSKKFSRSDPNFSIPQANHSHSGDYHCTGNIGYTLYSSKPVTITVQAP


Assays:
Assay in all cases: SPR (Biacore);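 further: antibody variants captured on sensor chip, Fcγ receptor flowed over at 25 °C, bound receptor normalized to amount of captured antibody, expressed relative to reference antibody set as 100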
[1] = target: T1, human FcγRIIa(H)
[2] = target: T4, human FcγRIIIa(F) (human, UniProt P08637 17-208, limits assumed)
T4 construct: also called FcgRIIIaF; allotype F158
T4 sequence (P08637 other isoform, or with tags, fused parts or gaps limits assumed): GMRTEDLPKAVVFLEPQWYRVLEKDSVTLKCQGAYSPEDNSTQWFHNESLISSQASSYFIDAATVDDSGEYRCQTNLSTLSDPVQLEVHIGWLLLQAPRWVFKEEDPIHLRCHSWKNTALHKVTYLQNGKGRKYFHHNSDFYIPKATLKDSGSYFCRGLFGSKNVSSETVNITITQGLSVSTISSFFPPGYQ

[3] = target: T2, human FcγRIIa(R)
[4] = target: T5, human FcγRIa (human, UniProt P12314 16-292, limits assumed)
T5 construct: also called FcgRIa; FcγRI (CD64)
T5 sequence (P12314 16-292 limits assumed): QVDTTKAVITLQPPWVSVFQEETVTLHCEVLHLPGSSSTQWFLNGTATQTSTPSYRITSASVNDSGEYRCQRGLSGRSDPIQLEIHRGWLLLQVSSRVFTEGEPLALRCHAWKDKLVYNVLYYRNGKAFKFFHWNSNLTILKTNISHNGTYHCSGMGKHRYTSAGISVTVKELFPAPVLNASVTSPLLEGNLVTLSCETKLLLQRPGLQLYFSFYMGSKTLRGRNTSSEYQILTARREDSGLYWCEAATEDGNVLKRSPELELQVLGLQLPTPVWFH

[5] = target: T3, human FcγRIIb

| Binder | relative binding activity [1] | relative binding activity [2] | relative binding activity [3] | relative binding activity [4] | relative binding activity [5] |
| --- | --- | --- | --- | --- | --- |
| GpH7-B3 variant G237N/GpL16-k0 (antibody, human IgG1, copies: 2 + 2) heavy: not shown light: DIVMTQSPLSLPVTPGEPASISCQASESLVHSNRNTYLHWYLQKPGQSPQLLIYKVSNRFSGVPDRFSGSGSGTDFTLKISRVEAEDVGVYYCSQNTHVPPTFGQGTKVEIE | 0 % of GpH7-B3/GpL16-k0 | 0 % of GpH7-B3/GpL16-k0 | 75 % of GpH7-B3/GpL16-k0 | 15 % of GpH7-B3/GpL16-k0 | 65 % of GpH7-B3/GpL16-k0 |
| GpH7-B3 variant L234H/GpL16-k0 (antibody, human IgG1, copies: 2 + 2) heavy: not shown light: DIVMTQSPLSLPVTPGEPASISCQASESLVHSNRNTYLHWYLQKPGQSPQLLIYKVSNRFSGVPDRFSGSGSGTDFTLKISRVEAEDVGVYYCSQNTHVPPTFGQGTKVEIE | 29 % of GpH7-B3/GpL16-k0 | 32 % of GpH7-B3/GpL16-k0 | 21 % of GpH7-B3/GpL16-k0 | 65 % of GpH7-B3/GpL16-k0 | 24 % of GpH7-B3/GpL16-k0 |
| GpH7-B3 variant G237T/GpL16-k0 (antibody, human IgG1, copies: 2 + 2) heavy: not shown light: DIVMTQSPLSLPVTPGEPASISCQASESLVHSNRNTYLHWYLQKPGQSPQLLIYKVSNRFSGVPDRFSGSGSGTDFTLKISRVEAEDVGVYYCSQNTHVPPTFGQGTKVEIE | 2 % of GpH7-B3/GpL16-k0 | 2 % of GpH7-B3/GpL16-k0 | 13 % of GpH7-B3/GpL16-k0 | 27 % of GpH7-B3/GpL16-k0 | 7 % of GpH7-B3/GpL16-k0 |
| GpH7-B3 variant L234E/GpL16-k0 (antibody, human IgG1, copies: 2 + 2) heavy: not shown light: DIVMTQSPLSLPVTPGEPASISCQASESLVHSNRNTYLHWYLQKPGQSPQLLIYKVSNRFSGVPDRFSGSGSGTDFTLKISRVEAEDVGVYYCSQNTHVPPTFGQGTKVEIE | 21 % of GpH7-B3/GpL16-k0 | 63 % of GpH7-B3/GpL16-k0 | 48 % of GpH7-B3/GpL16-k0 | 82 % of GpH7-B3/GpL16-k0 | 62 % of GpH7-B3/GpL16-k0 |
| GpH7-B3 variant L234Q/GpL16-k0 (antibody, human IgG1, copies: 2 + 2) heavy: not shown light: DIVMTQSPLSLPVTPGEPASISCQASESLVHSNRNTYLHWYLQKPGQSPQLLIYKVSNRFSGVPDRFSGSGSGTDFTLKISRVEAEDVGVYYCSQNTHVPPTFGQGTKVEIE | 16 % of GpH7-B3/GpL16-k0 | 25 % of GpH7-B3/GpL16-k0 | 18 % of GpH7-B3/GpL16-k0 | 80 % of GpH7-B3/GpL16-k0 | 19 % of GpH7-B3/GpL16-k0 |
| GpH7-B3 variant G237V/GpL16-k0 (antibody, human IgG1, copies: 2 + 2) heavy: not shown light: DIVMTQSPLSLPVTPGEPASISCQASESLVHSNRNTYLHWYLQKPGQSPQLLIYKVSNRFSGVPDRFSGSGSGTDFTLKISRVEAEDVGVYYCSQNTHVPPTFGQGTKVEIE | 10 % of GpH7-B3/GpL16-k0 | 2 % of GpH7-B3/GpL16-k0 | 55 % of GpH7-B3/GpL16-k0 | 8 % of GpH7-B3/GpL16-k0 | 12 % of GpH7-B3/GpL16-k0 |
| GpH7-B3 variant L234T/GpL16-k0 (antibody, human IgG1, copies: 2 + 2) heavy: not shown light: DIVMTQSPLSLPVTPGEPASISCQASESLVHSNRNTYLHWYLQKPGQSPQLLIYKVSNRFSGVPDRFSGSGSGTDFTLKISRVEAEDVGVYYCSQNTHVPPTFGQGTKVEIE | 30 % of GpH7-B3/GpL16-k0 | 30 % of GpH7-B3/GpL16-k0 | 33 % of GpH7-B3/GpL16-k0 | 93 % of GpH7-B3/GpL16-k0 | 27 % of GpH7-B3/GpL16-k0 |
| GpH7-B3 variant G237S/GpL16-k0 (antibody, human IgG1, copies: 2 + 2) heavy: not shown light: DIVMTQSPLSLPVTPGEPASISCQASESLVHSNRNTYLHWYLQKPGQSPQLLIYKVSNRFSGVPDRFSGSGSGTDFTLKISRVEAEDVGVYYCSQNTHVPPTFGQGTKVEIE | 3 % of GpH7-B3/GpL16-k0 | 1 % of GpH7-B3/GpL16-k0 | 45 % of GpH7-B3/GpL16-k0 | 50 % of GpH7-B3/GpL16-k0 | 26 % of GpH7-B3/GpL16-k0 |
| GpH7-B3 variant L234P/GpL16-k0 (antibody, human IgG1, copies: 2 + 2) heavy: not shown light: DIVMTQSPLSLPVTPGEPASISCQASESLVHSNRNTYLHWYLQKPGQSPQLLIYKVSNRFSGVPDRFSGSGSGTDFTLKISRVEAEDVGVYYCSQNTHVPPTFGQGTKVEIE | 45 % of GpH7-B3/GpL16-k0 | 45 % of GpH7-B3/GpL16-k0 | 41 % of GpH7-B3/GpL16-k0 | 83 % of GpH7-B3/GpL16-k0 | 33 % of GpH7-B3/GpL16-k0 |
| GpH7-B3 variant G237Q/GpL16-k0 (antibody, human IgG1, copies: 2 + 2) heavy: not shown light: DIVMTQSPLSLPVTPGEPASISCQASESLVHSNRNTYLHWYLQKPGQSPQLLIYKVSNRFSGVPDRFSGSGSGTDFTLKISRVEAEDVGVYYCSQNTHVPPTFGQGTKVEIE | 0 % of GpH7-B3/GpL16-k0 | 0 % of GpH7-B3/GpL16-k0 | 15 % of GpH7-B3/GpL16-k0 | 14 % of GpH7-B3/GpL16-k0 | 5 % of GpH7-B3/GpL16-k0 |
| GpH7-B3 variant G237R/GpL16-k0 (antibody, human IgG1, copies: 2 + 2) heavy: not shown light: DIVMTQSPLSLPVTPGEPASISCQASESLVHSNRNTYLHWYLQKPGQSPQLLIYKVSNRFSGVPDRFSGSGSGTDFTLKISRVEAEDVGVYYCSQNTHVPPTFGQGTKVEIE | -1 % of GpH7-B3/GpL16-k0 | 0 % of GpH7-B3/GpL16-k0 | 0 % of GpH7-B3/GpL16-k0 | 3 % of GpH7-B3/GpL16-k0 | -1 % of GpH7-B3/GpL16-k0 |
